Experimental findings from article PMC10397247 are described below.

Common to all, as to assay: two-hybrid library CCmax;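 also: natural log of median RNA to DNA barcode read ratio; higher means stronger binding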
Experiment [1] has as its target T1, APC6108-AA.
T1 chain: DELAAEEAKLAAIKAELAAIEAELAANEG
Particulars: mean of both orientations.

The target of experiment [2] is T2, 4H2458-AA.
T2 chain: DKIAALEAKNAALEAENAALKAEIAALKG
Particulars: mean of both orientations.

The target in experiment [3] is T3, 4H1639-AA.
T3 chain: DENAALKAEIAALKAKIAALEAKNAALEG
Particulars: mean of both orientations.

The target in experiment [4] is T4, 4H1324-AA.
T4 chain: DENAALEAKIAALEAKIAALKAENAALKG
Particulars: mean of both orientations.

Experiment [5] addresses T5, 4H122-AA.
T5 chain: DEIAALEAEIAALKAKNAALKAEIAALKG
As to conditions: mean of both orientations.

For experiment [6], the target named is T6, 4H1352-AA.
T6 chain: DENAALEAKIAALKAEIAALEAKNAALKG

For experiment [7], the target named is T7, P5-AA-1HAA-D.
T7 chain: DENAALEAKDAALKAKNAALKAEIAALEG
Particulars: mean of both orientations.

Experiment [8] deals with T8, P5-AA-1HGe-W.
T8 chain: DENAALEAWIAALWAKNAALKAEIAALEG
As to conditions: mean of both orientations.

Experiment [9] concerns the target T9, P5-AA-12HGe-Q.
T9 chain: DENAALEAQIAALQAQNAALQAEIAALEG
Particulars: mean of both orientations.

For experiment [10], the target named is T10, P5-AA-1HAA-H.
T10 chain: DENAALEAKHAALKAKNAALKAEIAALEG
Particulars: mean of both orientations.

Experiment [11] deals with T11, P5-AA-12HGe-M.
T11 chain: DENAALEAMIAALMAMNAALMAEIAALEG
Particulars: mean of both orientations.

In experiment [12] the target is T12, P5-AA-1HGe-Q.
T12 chain: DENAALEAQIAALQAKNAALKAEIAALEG
Particulars: mean of both orientations.

Experiment [13] addresses T13, P5-AA-1HGe-S.
T13 chain: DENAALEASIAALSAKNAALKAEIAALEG
Particulars: mean of both orientations.

Experiment [14] has as its target T14, P5-AA-1HGe-M.
T14 chain: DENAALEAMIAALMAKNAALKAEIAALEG
As to conditions: mean of both orientations.

Experiment [15] deals with T15, P5-AA-1HAA-V.
T15 chain: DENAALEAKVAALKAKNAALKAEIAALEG
Particulars: mean of both orientations.

Experiment [16] concerns the target T16, O8-AA.
T16 chain: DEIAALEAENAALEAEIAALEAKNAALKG
As to conditions: mean of both orientations.

Experiment [17] has as its target T17, O4-AA.
T17 chain: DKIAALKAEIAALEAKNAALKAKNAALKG
As to conditions: mean of both orientations.

Experiment [18] addresses T18, P6-AA-1HGe-H.
T18 chain: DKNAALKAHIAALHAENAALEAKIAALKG
As to conditions: mean of both orientations.

Experiment [19] concerns the target T19, P6-AA-1HGe-A.
T19 chain: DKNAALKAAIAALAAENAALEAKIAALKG
Particulars: mean of both orientations.

The target in experiment [20] is T20, P6-AA-1HAA-K.
T20 chain: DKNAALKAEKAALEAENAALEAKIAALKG
Particulars: mean of both orientations.

In experiment [21] the target is T21, P6-AA-12HGe-Q.
T21 chain: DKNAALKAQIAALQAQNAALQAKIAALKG
As to conditions: mean of both orientations.

Experiment [22] deals with T22, P6-AA-12HGe-D.
T22 chain: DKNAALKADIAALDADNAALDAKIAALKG
As to conditions: mean of both orientations.

The target of experiment [23] is T23, P6-AA-1HGe-W.
T23 chain: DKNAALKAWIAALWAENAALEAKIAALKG
As to conditions: mean of both orientations.

The target in experiment [24] is T24, P6-AA-1HAA-L.
T24 chain: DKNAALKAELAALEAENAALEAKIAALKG
Particulars: mean of both orientations.

Experiment [25] deals with T25, P6-AA-1HGe-R.
T25 chain: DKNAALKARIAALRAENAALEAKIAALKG
As to conditions: mean of both orientations.

Experiment [26] concerns the target T26, P6-AA-1HAA-S.
T26 chain: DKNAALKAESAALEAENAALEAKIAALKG
As to conditions: mean of both orientations.

For experiment [27], the target named is T27, 4H87-AA.
T27 chain: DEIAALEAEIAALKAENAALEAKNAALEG
Particulars: mean of both orientations.

Experiment [28] deals with T28, 4H3409-AA.
T28 chain: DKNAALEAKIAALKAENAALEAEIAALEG
Particulars: mean of both orientations.

The target in experiment [29] is T29, 4H2238-AA.
T29 chain: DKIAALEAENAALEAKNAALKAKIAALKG
Particulars: mean of both orientations.

Experiment [30] deals with T30, 4H2726-AA.
T30 chain: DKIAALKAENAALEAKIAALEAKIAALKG
As to conditions: mean of both orientations.

Experiment [31] addresses T31, 4H233-AA.
T31 chain: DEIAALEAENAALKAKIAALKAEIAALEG
Particulars: mean of both orientations.

Experiment [32] has as its target T32, 4H675-AA.
T32 chain: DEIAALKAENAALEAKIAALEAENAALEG
As to conditions: mean of both orientations.

Experiment [33] has as its target T33, 4H3446-AA.
T33 chain: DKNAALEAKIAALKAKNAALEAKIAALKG
Particulars: mean of both orientations.

Experiment [34] deals with T34, 4H3709-AA.
T34 chain: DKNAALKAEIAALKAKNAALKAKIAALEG
Particulars: mean of both orientations.

The target of experiment [35] is T35, 4H2948-AA.
T35 chain: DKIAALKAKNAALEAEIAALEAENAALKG
Particulars: mean of both orientations.

The target in experiment [36] is T36, 4H3591-AA.
T36 chain: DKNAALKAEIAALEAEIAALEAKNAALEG
Particulars: mean of both orientations.

The target of experiment [37] is T37, 4H146-AA.
T37 chain: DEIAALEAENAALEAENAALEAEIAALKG
Particulars: mean of both orientations.

For experiment [38], the target named is T38, 4H1064-AA.
T38 chain: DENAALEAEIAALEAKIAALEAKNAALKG

The target of experiment [39] is T39, 4H1854-AA.
T39 chain: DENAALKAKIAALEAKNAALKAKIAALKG
As to conditions: mean of both orientations.

Experiment [40] concerns the target T40, 4H3777-AA.
T40 chain: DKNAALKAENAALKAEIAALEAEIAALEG
Particulars: mean of both orientations.

For experiment [41], the target named is T41, 4H2600-AA.
T41 chain: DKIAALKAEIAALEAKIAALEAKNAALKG
Particulars: mean of both orientations.

The target of experiment [42] is T42, 4H2898-AA.
T42 chain: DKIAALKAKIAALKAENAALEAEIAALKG
Particulars: mean of both orientations.

Turning to DENAALKAKIAALEAKNAALEAKIAALEG [4H1845-AA], the interaction score is -2.14 in experiment [1] and -1.6 in experiment [2].

In experiment [3], DENAALKAEIAALKAENAALKAEIAALKG [4H1626-AA] came in with an interaction score of -1.38.

In the case of DENAALEAENAALEAEIAALEAEIAALEG [4H1153-AA], the figures for the interaction score in experiment [4], in experiment [5] and in experiment [6] were -0.874, -1.61 and 0, respectively.

DKNAALKAEIAALEAENAALEAKIAALKG [4H3606-AA]: the interaction score came to 1.43 in experiment [7]; 2.27 in [8]; 1.98 in experiment [9]; 2.02 in [10]; 1.77 in [11]; 2.38 in [12]. For the same molecule, the results for the interaction score in experiment [13], in experiment [14] and in experiment [15] were 2.03, 2.26 and 2.23, respectively.

In the case of DEIAALEAENAALEAKIAALKAENAALEG [4H171-AA], the interaction score was 0.645 in experiment [16] and -0.185 in experiment [17].

As for DENAALEAKIAALKAKNAALKAEIAALEG [4H1401-AA], the interaction score in experiment [18] was 1.77; in experiment [19], 2.14; in experiment [20], 2.04; in [21] it was 1.69; in experiment [22], -0.647; in experiment [23], 1.14. Also, the figures for the interaction score in experiment [24], in experiment [25] and in experiment [26] were 2.1, 1.53 and 1.9, respectively.

Take DENAALEAKIAALKAEIAALEAKIAALKG [4H1350-AA]: the interaction score in experiment [27] is -0.16; in experiment [28], -1.11; in experiment [29], -1.14; in experiment [30], -0.0467; in [31] it was 0.257.

In the case of DENAALEAEIAALEAKIAALEAKNAALKG [4H1064-AA], the interaction score is -1.16 in [32]; -1.11 in experiment [33]; -0.57 in [34]; -0.884 in experiment [35]; 0.232 in experiment [36]; -1.5 in experiment [37]. For the same molecule, the interaction score in [38] was 0.0437; in [39], -1.4.

In experiment [40], DEIAALEAENAALKAKNAALKAEIAALEG [4H249-AA] registered an interaction score of -0.457.

For the molecule DENAALEAENAALKAKIAALKAEIAALEG [4H1257-AA], the interaction score in experiment [41] was 0.518; in experiment [42] it was -1.42.
